Results on 22 sequences are retold here after the DeepSol protein solubility set.

The data set in a line: soluble on expression in E. coli; label from the status in PepcDB or PDB records.
For “SSWAIHYIGKSVEQLTGYSKMDFITRKLTWSDLICPEDIPALNKVVQKATKNRTPYQVEYRIKKADGSTVFIQEQAHPVNDDKGNLAYVDGVFLDV”, the “soluble on expression in E. coli” value is listed as “not soluble”.

Consider “AGENLYFQSLMNNFGNEEFDCHFLDEGFTAKDILDQKINEVSSSDDKDAFYVADLGDILKKHLRWLKALPRVTPFYAVKCNDSKAIVKTLAATGTGFDCASKTEIQLVQSLGVPPERIIYANPCKQVSQIKYAANNGVQMMTFDSEVELMKVARAHPKAKLVLRIATDDSKAVCRLSVKFGATLRTSRLLLERAKELNIDVVGVSFHVGSGCTDPETFVQAISDARCVFDMGAEVGFSMYLLDIGGGFPGSEDVKLKFEEITGVINPALDKYFPSDSGVRIIAEPGRYYVASAFTLAVNIIAKKIVLKEQTGSDDEDESSEQTFMYYVNDGVYGSFNCILYDHAHVKPLLQKRPKPDEKYYSSSIWGPTCDGLDRIVERCDLPEMHVGDWMLFENMGAYTVAAASTFNGFQRPTIYYVMSGPAWQLMQQFQNPDFPPEVEEQDASTLPVSCAWESGMKRHRAACASASINV”, for which the “soluble on expression in E. coli” value is “soluble”.

Turning to “MRRRQRRQSSNIFHMLTKNQIVELREAFNFMDVNSDTFVDRGDLENFLASIGSPFSESEIDEMMAEGGDSMTYMLFLTMIGERLSCTDSEKSIFNALKEFDDNGDGTIDEKVLREWLTEKGDRMADEDVNLLLRDCVENGRIDCRSLTTKMKYGEIINE”, the “soluble on expression in E. coli” value is “not soluble”.

“MPYIIPTFEEIRAAILRDVKNLLPDADTGPDSDAFIRASSTASAVYGLYQHQLWMARQILPDTADTAYLESHAALRGITRKPATKATGTLTLTGTPGAAVPAGTEARHIATGATFRTTATVTLAENGTASAPCEASVAGAMPDYTAETVLLTAPPPGVQSTASLALTGGTDTETDAELLERLLFHFRNPPGGGNRYDYKRWALEVPGVTGAWVYPLRRGLGTVDVAVLSAGGLPTPELLAAAQARIDERRPVACKDARVLAPTPLAVDVRVRVRLAGTTLPVVTTQVREALAAHFGGYEPGGQVVRSRLEAIISGIPGVADRDLTAPSANVQAVVDASRVEWPRLGTVTVEAMLEHHHHHH”: the “soluble on expression in E. coli” value is listed as “soluble”.

As to “MSLVIFIMKKRYICILPYSLSYGGVFIDCKEVIANYWNFRSSTYKNGINGFDEEERAVWKQIFENSLASGKRLKVLDVGTGTGFLALLFAEMGHEVSGIDLSEGMLEKARHNADNMGLEISLFHGDAENLPFEDCSFDLVVNKYLLWTLQEPASAVREWKRVLKPGGMIFAIDGNWFDPRPDRYIKRMLYGLAERFAKKNQYNLIFKKSYGPIRNSLPLYEKISPKNISFLFSETGLMNTEISPLLEVQKFQRNRHSFSRRIFENNSIFLISGQKNEGHHHHHH”, the “soluble on expression in E. coli” value is “not soluble”.

Consider “MNVACPALLIAGPASGQGKTTLTAALARHHVRQGRRVRVFKVGPDFLDPMLLQAASGQPVYQLDLWLVGEDQCRSLLFEAARSADLILIEGVMGLFDGTPSAADLAQTFGVPVLAVIDASGMAETFGAVAHGLATHRPGLPFAGVVANRVASPGHADRLRASLPGAIPFRGAFFRQPDAGFPDRHLGLVQAPELGDLDRRLDTLADAVAGTGLADLPDSVPFAPESAAVPPRLLEGVRIGIARDAAFSFLYPANLDLLRAMGATPVFFSPLGDRSLPEVDSVYLPGGYPELHLDTLAGNGGMKESLREHVAAGKPLLAECGGLLYLLEELADQNGRTSAMCGILPGRAKMQTRLAGLGLQSAAFRSGTLRAHTFHYSRLETPLSPLLMAERRRGGSAGEAVYRQGRLTASYLHWYLPSCPEAAAELLRPLEHHHHHH”, for which the “soluble on expression in E. coli” value is “soluble”.

With “MKIRDLLKARRGPLFSFEFFPPKDPEGEEALFRTLEELKAFRPAFVSITYGAMGSTRERSVAWAQRIQSLGLNPLAHLTVAGQSRKEVAEVLHRFVESGVENLLALRGDPPRGERVFRPHPEGFRYAAELVALIRERYGDRVSVGGAAYPEGHPESESLEADLRHFKAKVEAGLDFAITQLFFNNAHYFGFLERARRAGIGIPILPGIMPVTSYRQLRRFTEVCGASIPGPLLAKLERHQDDPKAVLEIGVEHAVRQVAELLEAGVEGVHFYTLNKSPATRMVLERLGLRPASGQP”, the “soluble on expression in E. coli” value is listed as “soluble”.

For the sequence “MKKRILSAVLVSGVTLSAAASVHAEDYDSQIAATNNAISNLASQQEAAQAQVATIQSQVSTLRTQKTELEAKNAELEKVSADLESEIQELSSKIVARQDSLAKQARSAQQNNTATSYINSILNSKSISEAITRITAISKVVTANNDLLTKQESDQKELAAKQEENQAAINTIAANKSELETTEAGLTTQQAELEAAQVTLAAELATAQNEKTSLVSAKSTAESVAASTAASVAQSQAIAESEATAQVVASSEAATSVASSEVAATSEAVAQPSETPVSETSTASEAAQEPASSETSEVQPESAAPAVSEAPASVAPVATSEAAPATSEAPASVAPVATSEAAPAVSEAPAPAAETHKVSAASTPNTYPVGQCTWGVKSLAPWAGNNWGNAKNWIASAQAAGHSVGTTPVAGAIAVWPNDGGGYGHVAYVTSASGANSIQVMESNYAGNMSISNYRGTFDPTSSAHGGSVFYIYPLEHHHHHH”, the “soluble on expression in E. coli” value is reported as “soluble”.

As for “MTLHKERRIGRLSVLLLLNEAEESTQVEELERDGWKVCLGKVGSMDAHKVIAAIETASKKSGVIQSEGYRESHALYHATMEALHGVTRGEMLLGSLLRTVGLRFAVLRGNPYESEAEGDWIAVSLYGTIGAPIKGLEHETFGVGINHI”, the “soluble on expression in E. coli” value was “soluble”.

Consider “NPDGLSQEQLEHRERSLQTLRDIQRMLFPDEKEFTGAQSGGPQQNP”, for which the “soluble on expression in E. coli” value is recorded as “soluble”.

Turning to “MTKEVLIHQIIDVLARAGFALSDRCNIRPRSFDVAARKDDTLLLCKVLFNIDGLNEETAREMKYLAEYLGGSAIVVGAKTRDQMLEDSVVYMRYDILALSVQTLYDYFVENIRPLVSAAPGGLYVSIEGDLLKKARTTQSMSLGTLASMVGVSRRTISKYEEEGMDASIDVVLHLEDIFGVELAKPIDILKSCGSRKPRKKAEPEKEEPKGKPGTLLPEDLILNTISMLGYDVLPTAQAPFKAISRDKSSVILTGVSEFNTTVIKRAHLMSSISCITETQSVFIINGRSKLKSVENTVLIEKKELDTISDSQELLDFIEERKDTHEA”, the “soluble on expression in E. coli” value is recorded as “not soluble”.

Regarding “MGSDKIHHHHHHMTSEKGIIFNIQHFSIHDGPGIRTTVFLKGCPLRCPWCSNPESQKYKPEQMLDAETKLPMIIGEEKTVEDIISEVKKDIDFYEESGGGLTLSGGEIFAQFEFAKAILKCAKEEGLHTAIETTAFAEHEKFTDLIQYVDFIYTDLKHYNTIRHRKVTGVNNNFIIQNIHYAFTHKKTIVLRIPVIPDFNNSLDDAEHFAKLFNDIQVDKVQLLPFHQFGENKYKFLNRKYEMSGYTALHPEDLYDYQSVFLEHGIDCYF”, the “soluble on expression in E. coli” value is “not soluble”.

Take “MSGGGIIPRGGGYSKRRGRGRRGGGNGGFRDDIRDNQSDRHLSPDRRSNHSEDRHEHRFNNYRQQNRPNSRTPSPSNHNQVQTYRNNPFDARPALSSNDRDQGRNRFSPPSFRRDGRDSDRNGYHEKEEEPTRGSRNDLRTILKPTDKEAARTWKLRIADAEEAIRRAEFQLRRAKMDHEALLEAYKEYTETTCPQELLKPNW”: the “soluble on expression in E. coli” value is “not soluble”.

With “TTSMIQISDAVGYLIRPLKIFKLPVDDIVLTLSIALRFIPTMLQEISTISDAQKARGSSLNSRSIAKKIKAIVPILMPLFIASVRRAEDLATAMIMRGYSDGKNRTKFRIMK”, the “soluble on expression in E. coli” value was “not soluble”.

“GPGSYLMLLGLNLIRLLVCSRIAEFHSEMEKIPFATHGSNLYIRFAVGLERYLMEGSYNKLLTSRKKVPSNEYLPVVEMLEQTVRDEVANCIPESYRQLSIPAAQRILMVDTEAKVREIGAKREWALSADGTHFVFTREDDTLQKEIPFKEMIEQHINFVADLQNIV”: the “soluble on expression in E. coli” value is listed as “not soluble”.

For the sequence “MGSDKIHHHHHHMNTYFDNATSSYPKPDAMRQALAYFYDVPVGSYGRSRDRETLRVTSEVEELRDALADLIGVSESAHICFADNATTGINTILRGSLQAGCSVLVSPMEHNAVMRPLQCLADTIGLKIALMPSMPDGRVDTDRLVSAIPTDTALAVVNLESNVNGLVQPIEEIARLLTQERGIPILADATQYLGTSRLKADELGLAYVAFTGHKGLLGPSGTGGFYIRDPRSVHPLTTGGNGLHSADWTVGVEMPERFMAGTVNVLGLTALLASVRQLPPFRISRDAWKQCMQQMQRFPGLRVYGAADPIEQGYLCSLTHDRLTPARIGDALYEAFDIVTRTGIHCAPLAHRSIGTFATGTVRLSLSPYHEEADLEYLLNALSHVLRS”, the “soluble on expression in E. coli” value is “not soluble”.

With “MSRQPKPARLAGGALALGLLLGLPNPVEAAQDNGMEHSAMDHGAMPGMDHGAASPAPAQPMEHRGMDHGRMPGMSHAARQPPAQAASSQSRTPIPVPTEADRRAAFPPLEGHKVHDSALNSFFLLDQLEYQDADDGSALAWDASGWIGGDINRLWLRSEGERLDGKTEDAEVQALFGHAIGPWWDLVAGVRQDFKPGSPQTWAAFGVQGLALYDFEAEVTAFLGENGQSALRLEGEYDILLTNRLILQPSAEVNLYGRNDPARGIGSGLADSELGLRLRYEIRREFAPYIGVTWNRSYGNSADLARAEGEDDDEARFVAGIRMWFLEHHHHHH”, the “soluble on expression in E. coli” value is given as “not soluble”.

Consider “KIGKHTIKFPIFQGGMGVGISWDELAGNVAKEGALGVISAVGTGYYKNMRFVERIVAKKPFEALNFYSKKALNEIFANARKICGNNPLGANILYAINDYGRVLRDSCEAGANIIITGAGLPTNMPEFAKDFSDVALIPIISSAKALKILCKRWSDRYKRIPDAFIVEGPLSGGHQGFKYEDCFKEEFRLENLVPKVVEASKEWGNIPIIAAGGIWDRKDIDTMLSLGASGVQMATRFLGTKECDAKVYADLLPTLKKEDILLIKSPVGYPARAINTGVIKRIEEGNAPKIACVSNCVAPCNRGEEAKKVGYCIADGLGRSYLGNREEGLYFTGANGYRVDKIISVHELIK”, for which the “soluble on expression in E. coli” value is listed as “not soluble”.

In the case of “MAKTIFYFSYRKTEELHAKAKELKKITTDYGYELTDDYQKANVIISIGGDGAFLKSVRETGFRQDCLYAGIALTEQLGQYCDFHINQLDEIIKAAIEDRWLVRRYPTIYGTVNNTKAFYVLNEFNIRSSIIRTLTMDLYINDSHFETFRGDGMVISTPTGSTAYNKSVNGSIVDPLLPSMQVSELASINNNKFRTLGSSFILSPKRKLRIEIASEEGNNEFPMIGMDSEALSIQHVHEVNLEVGDRFINIIKLPKNSFWDKVKRNFLLEHHHHHH”, the “soluble on expression in E. coli” value is “soluble”.

For the sequence “MGHHHHHHSHMIDKATGILLYGLASRLRDTRRLSFLVSYIASKKIHTEPQLSAALEYVRSHPLDPIDTVDFERECGVGVIVTPEQIEEAVEAAINRHRPQLLVERYHFNMGLLMGEARAVLKWADGKMIKNEVDMQVLHLLGPKLEADLE”, the “soluble on expression in E. coli” value is “soluble”.

For “MATIGLDRLYYAKITENENGEETYATPVPLAKAITAELSVELAEATLYADDGAAEVVKEFQSGTLTLGVADIGVDAAEVLTGATLDDNKVLISTSEDGGAPVAIGFRAKKANGKYRYFWLYRVKFGIPATNLQTKGDSITFSTPTIEGTVMRRNKPDGQGKHPWKAEVSEDDPGVLPETIAGWYTEVYEPVFAVGGGS”, the “soluble on expression in E. coli” value is reported as “not soluble”.

Consider “MSLTNDIYDKGLAIRKEVVGVDSVERSLRDATEYTAPFQALATEYCWGRVWGRDELDRRTRSIANIAMMIALNRAPELRIHIKGALTNGVPRKEIAEVILQSAVYCGIPAAGDAFRQMQSVFDEADAAAACAPASPAARKSIAVIGLGAMGYPMAAQLVRAGHDVRPYDANPAVLARFAEEFNTGVAPIASCVAGADFVVTVLPDSTVVTRVLDGDNGSGGVAARIKPGATLIDMTSGDPATTRALAARLGEAGVRMIDAPVSGGFVKARTGELAIMVGGEADTVAAAMDILQAMGTSIAHVGPIGAGHTVKALNNYISAIGWLAVIEAIHTGKRFGLDVATMNRIFNQSSGRNSSTANKVEQAVLSGTYHTGFSLALMAKDVGIAVGLARQMGVDAEVGTLAHRIIQTAFDQSAEKDLDNSRLFDILYSEGHHHHHH”, for which the “soluble on expression in E. coli” value was “not soluble”.
